These are literature values, as cited in article PMC9405667.

Data set [1] deals with chemerin receptor 2 (chem2) (Homo sapiens) (UniProt P46091).
Data set [2] concerns the target chemerin receptor 1 (chem1) (Homo sapiens) (UniProt Q99788).

Sequence of chemerin (chem157S) (Q99969 21-157): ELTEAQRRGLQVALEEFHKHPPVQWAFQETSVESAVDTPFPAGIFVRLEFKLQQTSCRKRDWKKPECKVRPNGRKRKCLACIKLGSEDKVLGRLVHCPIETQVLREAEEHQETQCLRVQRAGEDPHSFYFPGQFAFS
Sequence of chemerin receptor 2 (chem2) (Homo sapiens) (P46091 whole entry): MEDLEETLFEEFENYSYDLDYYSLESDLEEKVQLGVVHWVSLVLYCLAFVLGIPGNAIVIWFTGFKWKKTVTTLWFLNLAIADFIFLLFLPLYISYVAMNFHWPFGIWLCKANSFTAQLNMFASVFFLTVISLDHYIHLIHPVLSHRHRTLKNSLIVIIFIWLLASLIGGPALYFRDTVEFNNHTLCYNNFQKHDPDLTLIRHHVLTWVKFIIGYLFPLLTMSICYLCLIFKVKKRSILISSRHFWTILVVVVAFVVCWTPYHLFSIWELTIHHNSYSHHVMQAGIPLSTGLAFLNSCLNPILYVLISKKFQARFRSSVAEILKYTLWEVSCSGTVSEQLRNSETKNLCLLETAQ
Sequence of chemerin receptor 1 (chem1) (Homo sapiens) (Q99788 whole entry): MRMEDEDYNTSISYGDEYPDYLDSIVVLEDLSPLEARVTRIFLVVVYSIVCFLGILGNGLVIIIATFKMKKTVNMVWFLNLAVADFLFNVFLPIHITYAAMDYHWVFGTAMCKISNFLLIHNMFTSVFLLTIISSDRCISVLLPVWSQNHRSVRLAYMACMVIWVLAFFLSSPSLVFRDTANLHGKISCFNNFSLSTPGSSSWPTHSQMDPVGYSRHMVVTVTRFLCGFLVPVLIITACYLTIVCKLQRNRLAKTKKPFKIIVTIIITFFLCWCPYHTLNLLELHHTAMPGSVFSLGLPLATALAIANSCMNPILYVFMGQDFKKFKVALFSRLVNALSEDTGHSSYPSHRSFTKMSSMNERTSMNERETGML

Turning to “chemerin (chem157S) (from UniProt Q99969)”, the Kd is 0.21 nM in data set [1] and 0.88 nM in data set [2].
